According to EP1988165A1 (THE UNIVERSITY OF NORTH CAROLINA AT CHAPEL HILL, dated 2008):

How the values were obtained:
[1] = molecular target: human ROC1, untagged (endogenous in HeLa and Saos-2 cells, or in vitro translated) (human, UniProt P62877 1-108); assay: immunopurification of ROC1 immunocomplexes from HeLa cells and protein microsequencing
[2] = molecular target: T1, ScAPC2 fused in-frame with the GAL4 activation domain (yeast; Saccharomyces cerevisiae, UniProt Q12440 1-853); assay: yeast two-hybrid (FIG. 5D)
T1 construct: also called yeast APC2
T1 sequence (looked up): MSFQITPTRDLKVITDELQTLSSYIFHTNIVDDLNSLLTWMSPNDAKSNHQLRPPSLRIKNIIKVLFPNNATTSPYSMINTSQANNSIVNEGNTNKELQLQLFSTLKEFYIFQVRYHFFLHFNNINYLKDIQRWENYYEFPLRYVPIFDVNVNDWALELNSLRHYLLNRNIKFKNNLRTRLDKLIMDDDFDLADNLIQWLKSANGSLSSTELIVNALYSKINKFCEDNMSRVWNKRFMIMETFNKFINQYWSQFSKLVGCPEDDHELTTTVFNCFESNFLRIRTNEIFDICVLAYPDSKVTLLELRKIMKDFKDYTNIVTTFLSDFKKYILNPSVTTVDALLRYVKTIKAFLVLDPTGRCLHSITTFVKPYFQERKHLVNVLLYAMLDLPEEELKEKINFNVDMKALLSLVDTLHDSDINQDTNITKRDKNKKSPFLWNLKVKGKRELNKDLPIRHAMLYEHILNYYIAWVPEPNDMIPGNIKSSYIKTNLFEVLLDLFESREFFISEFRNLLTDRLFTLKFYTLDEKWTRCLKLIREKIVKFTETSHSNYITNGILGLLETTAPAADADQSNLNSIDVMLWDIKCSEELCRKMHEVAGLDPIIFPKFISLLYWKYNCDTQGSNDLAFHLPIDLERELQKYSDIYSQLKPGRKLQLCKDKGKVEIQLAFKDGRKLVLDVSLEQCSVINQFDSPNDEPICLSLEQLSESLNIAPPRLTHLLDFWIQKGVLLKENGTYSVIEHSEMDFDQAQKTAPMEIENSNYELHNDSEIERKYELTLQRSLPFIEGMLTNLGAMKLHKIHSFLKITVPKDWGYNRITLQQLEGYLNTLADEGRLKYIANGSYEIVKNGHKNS

[3] = molecular target: T2, mouse APC2 fused to the Gal4 DNA binding domain (yeast; mouse, UniProt P04386 1-147; Q8BZQ7 15-837, limits assumed); assay: yeast two-hybrid, -LWH medium with 5 mM 3-AT (FIG. 4E)
T2 construct: also called GAL4BD-APC2

[4] = molecular target: T3, HA-epitope tagged human ROC1 (human, UniProt P62877 1-108); assay: co-immunoprecipitation with anti-HA from [35S]-methionine labeled transfected cells (FIG. 3A)
T3 construct: Expressed by transfection in mammalian cells (Saos-2, HeLa, 293T); also called HA-ROC1

[5] = molecular target: T4, CDC53 fused in-frame with the Gal4 DNA binding domain (pGBT8-CDC53) (yeast; Saccharomyces cerevisiae, UniProt P04386 1-147; Q12018 1-815); assay: yeast two-hybrid, histidine reporter (FIG. 5D)
[6] = molecular target: T5, CUL-B (ORF YGR003w) fused in-frame with the Gal4 DNA binding domain (pGBT8) (yeast; Saccharomyces cerevisiae, UniProt P04386 1-147; P53202 1-744); assay: yeast two-hybrid, histidine reporter (FIG. 5D)
[7] = molecular target: T6, CUL-C (ORF YJL047c) fused in-frame with the Gal4 DNA binding domain (pGBT8) (yeast; Saccharomyces cerevisiae, UniProt P04386 1-147; P47050 1-842); assay: yeast two-hybrid, histidine reporter (FIG. 5D)
[8] = molecular target: myc-epitope tagged APC2 (mouse, UniProt Q8BZQ7 15-837, limits assumed); assay: co-immunoprecipitation from transfected HeLa cells
[9] = molecular target: T4, CDC53 fused in-frame with the Gal4 DNA …; assay: yeast two-hybrid (FIG. 5D)
[10] = molecular target: T5, CUL-B (ORF YGR003w) fused in-frame with …; assay: yeast two-hybrid (FIG. 5D)
[11] = molecular target: T6, CUL-C (ORF YJL047c) fused in-frame with …; assay: yeast two-hybrid (FIG. 5D)
[12] = molecular target: T7, human ROC1 fused in-frame with the DNA activation domain of Gal4 (pGAD-ROC1) (yeast; human, UniProt P62877 1-108); assay: yeast two-hybrid; library screen with mouse cullin 4A as bait and FIG. 1A
T7 construct: Yeast two-hybrid prey; also called regulator of cullins
T7 sequence (P62877 whole entry, the tested form may be a part): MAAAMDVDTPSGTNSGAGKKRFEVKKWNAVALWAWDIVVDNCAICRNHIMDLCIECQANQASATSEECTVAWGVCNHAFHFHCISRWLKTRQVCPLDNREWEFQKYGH

Chain of human ROC1, untagged (endogenous in HeLa and Saos-2 cells, or in vitro translated) (P62877 whole entry, the tested form may be a part): as above
T3 sequence (P62877 whole entry): as the sequence (P62877 whole entry, the tested form may be a part) above
Chain of myc-epitope tagged APC2 (Q8BZQ7 15-837 limits assumed): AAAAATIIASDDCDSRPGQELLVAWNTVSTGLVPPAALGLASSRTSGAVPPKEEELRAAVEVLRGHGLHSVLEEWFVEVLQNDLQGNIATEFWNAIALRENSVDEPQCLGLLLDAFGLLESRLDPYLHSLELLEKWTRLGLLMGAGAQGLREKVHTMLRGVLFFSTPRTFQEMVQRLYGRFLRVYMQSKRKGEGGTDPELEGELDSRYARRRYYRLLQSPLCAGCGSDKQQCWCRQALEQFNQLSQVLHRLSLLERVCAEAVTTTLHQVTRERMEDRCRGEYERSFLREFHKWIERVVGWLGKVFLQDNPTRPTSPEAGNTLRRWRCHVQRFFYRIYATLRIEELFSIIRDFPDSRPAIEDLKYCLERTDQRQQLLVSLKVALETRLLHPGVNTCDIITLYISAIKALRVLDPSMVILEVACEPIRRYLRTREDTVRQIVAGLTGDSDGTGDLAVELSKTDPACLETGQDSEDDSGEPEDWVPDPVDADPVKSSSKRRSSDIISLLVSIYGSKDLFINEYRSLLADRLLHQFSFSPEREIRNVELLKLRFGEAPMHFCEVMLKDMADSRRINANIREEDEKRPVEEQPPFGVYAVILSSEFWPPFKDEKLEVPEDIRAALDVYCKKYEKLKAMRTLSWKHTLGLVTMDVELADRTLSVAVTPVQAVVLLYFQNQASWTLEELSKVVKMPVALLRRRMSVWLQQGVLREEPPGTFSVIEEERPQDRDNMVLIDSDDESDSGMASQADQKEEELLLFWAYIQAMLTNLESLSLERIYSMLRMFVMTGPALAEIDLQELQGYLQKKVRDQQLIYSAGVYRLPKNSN

B1: human CUL2, endogenous in HeLa cells (other, UniProt Q13617 1-745, looked up)
chain: MSLKPRVVDFDETWNKLLTTIKAVVMLEYVERATWNDRFSDIYALCVAYPEPLGERLYTETKIFLENHVRHLHKRVLESEEQVLVMYHRYWEEYSKGADYMDCLYRYLNTQFIKKNKLTEADLQYGYGGVDMNEPLMEIGELALDMWRKLMVEPLQAILIRMLLREIKNDRGGEDPNQKVIHGVINSFVHVEQYKKKFPLKFYQEIFESPFLTETGEYYKQEASNLLQESNCSQYMEKVLGRLKDEEIRCRKYLHPSSYTKVIHECQQRMVADHLQFLHAECHNIIRQEKKNDMANMYVLLRAVSTGLPHMIQELQNHIHDEGLRATSNLTQENMPTLFVESVLEVHGKFVQLINTVLNGDQHFMSALDKALTSVVNYREPKSVCKAPELLAKYCDNLLKKSAKGMTENEVEDRLTSFITVFKYIDDKDVFQKFYARMLAKRLIHGLSMSMDSEEAMINKLKQACGYEFTSKLHRMYTDMSVSADLNNKFNNFIKNQDTVIDLGISFQIYVLQAGAWPLTQAPSSTFAIPQELEKSVQMFELFYSQHFSGRKLTWLHYLCTGEVKMNYLGKPYVAMVTTYQMAVLLAFNNSETVSYKELQDSTQMNEKELTKTIKSLLDVKMINHDSEKEDIDAESSFSLNMNFSSKRTKFKITTSMQKDTPQEMEQTRSAVDEDRKMYLQAAIVRIMKARKVLRHNALIQEVISQSRARFNPSISMIKKCIEVLIDKQYIERSQASADEYSYVA
notes: also called cullin 2
- binding result [1]: binds

B2: ScROC1 fused in-frame with the Gal4 DNA binding domain (pGBT8-ScROC1) (other, yeast;Saccharomyces cerevisiae, UniProt P04386 1-147, looked up)
chain: MKLLSSIEQACDICRLKKLKCSKEKPKCAKCLKNNWECRYSPKTKRSPLTRAHLTEVESRLERLEQLFLLIFPREDLDMILKMDSLQDIKALLTGLFVQDNVNKDAVTDRLASVETDMPLTLRQHRISATSSSEESSNKGQRQLTVSMSNEVDRMDVDEDESQNIAQSSNQSAPVETKKKRFEIKKWTAVAFWSWDIAVDNCAICRNHIMEPCIECQPKAMTDTDNECVAAWGVCNHAFHLHCINKWIKTRDACPLDNQPWQLARCGR
- binding result [2]: binds

B3: full length human ROC2 fused in-frame with the yeast Gal4 DNA activation domain (other, not shown: large carriers)
chain: MFSLKKWNPVAMWSWDVECDTCAICRVQVMDACLRCQAENKQEDCVVVWGECNHSFHNCCMSLWVKQNNRCPLCQQDWVVQRIGK
notes: Yeast two-hybrid prey
- binding result [3]: no binding

B4: myc-epitope tagged mouse CUL4A (other, UniProt Q3TCH7 1-759, looked up, not shown: small tags and cut ends)
chain: MADEGPRKGSVSALMGRTNGLTKPAALAGGPAKPGGTGGSRKLVIKNFRDRPRLPDNYTQDTWRKLHEAVKAIQSSTSIRYNLEELYQAVENLCSHKVSPTLYKQLRQVCEDHVQAQILPFREDSLDSVLFLKKINTCWQDHCRQMIMIRSIFLFLDRTYVLQNSMLPSIWDMGLELFRNHIISDRMVQSKTIDGILLLIGRERSGEAVDRSLLRSLLSMLSDLQVYKDSFELKFLEETNCLYAAEGQRLMQDREVPEYLNHVSKRLEEEADRVITYLDHSTQKPLIACVEKQLLGEHLTAILQKGLEHLLDENRVPDLTQMYQLFSRVKGGQHALLQHWSEYIKTFGTTIVINPEKDKDMVQDLLDFKDKVDHVVEVCFQRNERFINLMKESFETFINKRPNKPAELIAKHVDSKLRAGNKEATDEELERILDKIMILFRFIHGKDVFEAFYKKDLAKRLLVGKSASVDAEKSMLSKLKHECGAAFTSKLEGMFKDMELSKDIMVHFKQHMQNQSAPGPIDLTVNILTMGYWPTYTPMEVHLPPEMVRLQEVFKTFYLGKHSGRKLQWQTTLGHAVLKADFKEGKKEFQVSLFQTLVLLMFNEGDGFSFEEIKMATGIEDSELRRTLQSLACGKARVLIKSPKGKEVEDGDKFIFNADFKHKLFRIKINQIQMKETVEEQVSTTERVFQDRQYQIDAAIVRIMKMRKTLGHNLLVSELYNQLKFPVKPGDLKKRIESLIDRDYMERDKDSPNQYHYVA
notes: also called myc-mCUL4A; cullin 4A
- binding result [4]: binds

B5: ScAPC11 fused in-frame with the GAL4 activation domain (pGAD) (other, Saccharomyces cerevisiae, UniProt Q12157 1-165, looked up, not shown: large carriers)
chain: MKVKINEVHSVFAWSWHIPSTSDEDAANNDPIGNDEDEDVCGICRASYNGTCPSCKFPGDQCPLVIGLCHHNFHDHCIYRWLDTPTSKGLCPMCRQTFQLQKGLAINDAHVQKFVEIVSRRREEMIEEGVAEEFVDFDEPIRQNTDNPIGRQQVDTILDEDFLLR
notes: also called yeast APC11
- binding result [5]: no binding
- binding result [6]: no binding
- binding result [7]: binds

B6: HA tagged human ROC2 (other, not shown: small tags and cut ends)
chain: ADVEDGEETCALASHSGSSGSTSGGDKMFSLKKWNPVAMWSWDVECDTCAICRVQVMDACLRCQAENKQEDCVVVWGECNHSFHNCCMSLWVKQNNRCPLCQQDWVVQRIGK
notes: Transfected protein migrates as a doublet; also called HA-ROC2
- binding result [8]: no binding

B7: ScROC1 fused in-frame with the GAL4 activation domain (pGAD-ScROC1) (other, Saccharomyces cerevisiae, UniProt Q08273 1-121, looked up, not shown: large carriers)
chain: MSNEVDRMDVDEDESQNIAQSSNQSAPVETKKKRFEIKKWTAVAFWSWDIAVDNCAICRNHIMEPCIECQPKAMTDTDNECVAAWGVCNHAFHLHCINKWIKTRDACPLDNQPWQLARCGR
notes: also called yeast ROC1; ROC1p
- binding result [9]: binds
- binding result [10]: binds
- binding result [11]: binds

B8: full-length mouse cullin 4A fused in frame with the DNA-binding domain of Gal4 (other, yeast;mouse, UniProt P04386 1-147, looked up)
chain: MKLLSSIEQACDICRLKKLKCSKEKPKCAKCLKNNWECRYSPKTKRSPLTRAHLTEVESRLERLEQLFLLIFPREDLDMILKMDSLQDIKALLTGLFVQDNVNKDAVTDRLASVETDMPLTLRQHRISATSSSEESSNKGQRQLTVSMADEGPRKGSVSALMGRTNGLTKPAALAGGPAKPGGTGGSRKLVIKNFRDRPRLPDNYTQDTWRKLHEAVKAIQSSTSIRYNLEELYQAVENLCSHKVSPTLYKQLRQVCEDHVQAQILPFREDSLDSVLFLKKINTCWQDHCRQMIMIRSIFLFLDRTYVLQNSMLPSIWDMGLELFRNHIISDRMVQSKTIDGILLLIGRERSGEAVDRSLLRSLLSMLSDLQVYKDSFELKFLEETNCLYAAEGQRLMQDREVPEYLNHVSKRLEEEADRVITYLDHSTQKPLIACVEKQLLGEHLTAILQKGLEHLLDENRVPDLTQMYQLFSRVKGGQHALLQHWSEYIKTFGTTIVINPEKDKDMVQDLLDFKDKVDHVVEVCFQRNERFINLMKESFETFINKRPNKPAELIAKHVDSKLRAGNKEATDEELERILDKIMILFRFIHGKDVFEAFYKKDLAKRLLVGKSASVDAEKSMLSKLKHECGAAFTSKLEGMFKDMELSKDIMVHFKQHMQNQSAPGPIDLTVNILTMGYWPTYTPMEVHLPPEMVRLQEVFKTFYLGKHSGRKLQWQTTLGHAVLKADFKEGKKEFQVSLFQTLVLLMFNEGDGFSFEEIKMATGIEDSELRRTLQSLACGKARVLIKSPKGKEVEDGDKFIFNADFKHKLFRIKINQIQMKETVEEQVSTTERVFQDRQYQIDAAIVRIMKMRKTLGHNLLVSELYNQLKFPVKPGDLKKRIESLIDRDYMERDKDSPNQYHYVA
notes: Yeast two-hybrid bait, also used for the library screen; also called mouse CUL4A; CUL4A
- binding result [12]: binds
